Laboratory results published in the supplement of paper PMC10567573.

B1: PCDHGA10 (parent)
chain: FHELQMQVTASDSGDPPLSSNVSL
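Further: lentivirally expressed fusions sorted by FACS into six bins by GFP to DsRed ratio, PSI derived from sequencing read proportions per bin multiplied by bin number.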

Variants of: B1
Experiment: protein stability index of a GFP-peptide fusion (GPS, HEK-293T) (PSI 1-6); higher = more stable
Conditions: c terminus: a fixed tail appended
FGELQMQVTASDSGDPPLSSNVSL [H2G] showed a protein stability index of 3.94. FFELQMQVTASDSGDPPLSSNVSL [H2F] showed a protein stability index of 2.21. In the case of FLELQMQVTASDSGDPPLSSNVSL [H2L], the protein stability index is reported as 2.51. For FRELQMQVTASDSGDPPLSSNVSL [H2R], the protein stability index was 3.85. For FNELQMQVTASDSGDPPLSSNVSL [H2N], the protein stability index was 4.47. With FPELQMQVTASDSGDPPLSSNVSL [H2P] the protein stability index was 3.99. Work on FHELQMQCTASDSGDPPLSSNVSL [V8C] yielded a protein stability index of 2.56. FHELQMQRTASDSGDPPLSSNVSL [V8R] showed a protein stability index of 3.2. FHELQMQDTASDSGDPPLSSNVSL [V8D] gave a protein stability index of 4.05. Work on FHELQMQKTASDSGDPPLSSNVSL [V8K] yielded a protein stability index of 3.06. Variant FHELQMQMTASDSGDPPLSSNVSL [V8M] has a protein stability index of 2.28. Variant FHELQMQETASDSGDPPLSSNVSL [V8E] has a protein stability index of 3.94. With FHELQMQSTASDSGDPPLSSNVSL [V8S] the protein stability index was 3.07. With FHELQMQITASDSGDPPLSSNVSL [V8I] the protein stability index was 2.29. In the case of FHELQMQYTASDSGDPPLSSNVSL [V8Y], the protein stability index is reported as 2.01. For FHELQMQTTASDSGDPPLSSNVSL [V8T], the protein stability index was 2.81. FHELQMQNTASDSGDPPLSSNVSL [V8N] gave a protein stability index of 3.72. FHELQMQQTASDSGDPPLSSNVSL [V8Q] gave a protein stability index of 3.51. For FHELQMQATASDSGDPPLSSNVSL [V8A], the protein stability index was 3.11. FHELQMQVTASDSGDPPVSSNVSL [L18V] showed a protein stability index of 2.43. Variant FHELQMQVTASDSGDPPPSSNVSL [L18P] has a protein stability index of 3.02. In the case of FHELQMQVTASDSGDPPISSNVSL [L18I], the protein stability index is reported as 2.33. Work on FHELQMQVTASDSGDPPYSSNVSL [L18Y] yielded a protein stability index of 2.15. With FHELQMQVTASDSGDPPMSSNVSL [L18M] the protein stability index was 2.31. Variant FHELQMQVTASDSGDPPLSSNRSL [V22R] has a protein stability index of 2.69. FHELQMQVTASDSGDPPLSSNWSL [V22W] showed a protein stability index of 2.05. In the case of FHELQMQVTASDSGDPPLSSNCSL [V22C], the protein stability index is reported as 2.38. FHELQMQVTASDSGDPPLSSNYSL [V22Y] showed a protein stability index of 2.56. FHELQMQVTASDSGDPPLSSNPSL [V22P] showed a protein stability index of 2.34. With FHELQMQVTASDSGDPPLSSNDSL [V22D] the protein stability index was 3.4. FHELQMQVTASDSGDPPLSSNLSL [V22L] gave a protein stability index of 2.71. With FHELQMQVTASDSGDPPLSSNTSL [V22T] the protein stability index was 2.83. Variant FHELQMQVTASDSGDPPLSSNMSL [V22M] has a protein stability index of 2.34. FHELQMQVTASDSGDPPLSSNGSL [V22G] showed a protein stability index of 2.72. FHELQMQVTASDSGDPPLSSNESL [V22E] gave a protein stability index of 3.24. Variant FHELKMQVTASDSGDPPLSSNVSL [Q5K] has a protein stability index of 2.13. In the case of FHELWMQVTASDSGDPPLSSNVSL [Q5W], the protein stability index is reported as 3.59. In the case of FHELRMQVTASDSGDPPLSSNVSL [Q5R], the protein stability index is reported as 2.42. FHELCMQVTASDSGDPPLSSNVSL [Q5C] showed a protein stability index of 1.88. With FHELYMQVTASDSGDPPLSSNVSL [Q5Y] the protein stability index was 1.87. Variant FHELDMQVTASDSGDPPLSSNVSL [Q5D] has a protein stability index of 3.32. FHELFMQVTASDSGDPPLSSNVSL [Q5F] gave a protein stability index of 3.27. Work on FHELSMQVTASDSGDPPLSSNVSL [Q5S] yielded a protein stability index of 2.11. Work on FHELTMQVTASDSGDPPLSSNVSL [Q5T] yielded a protein stability index of 2.16. In the case of FHELQMQVTASDSCDPPLSSNVSL [G14C], the protein stability index is reported as 2.44. For FHELQMQVTASDSPDPPLSSNVSL [G14P], the protein stability index was 3.16. For FHELQMQVTASDSVDPPLSSNVSL [G14V], the protein stability index was 2.59. With FHELQMQVTASDSTDPPLSSNVSL [G14T] the protein stability index was 2.31. In the case of FHELQMQVTASDSKDPPLSSNVSL [G14K], the protein stability index is reported as 2.31. FHELQMQVTASDSWDPPLSSNVSL [G14W] showed a protein stability index of 2.11. With FHELQMQVTASDSYDPPLSSNVSL [G14Y] the protein stability index was 1.94. Work on FHELQMQVTASDSRDPPLSSNVSL [G14R] yielded a protein stability index of 2.21. Variant FHELQMQVTASDSFDPPLSSNVSL [G14F] has a protein stability index of 1.82. In the case of FHELQMQVTASDGGDPPLSSNVSL [S13G], the protein stability index is reported as 2.33. Variant FHELQMQVTASDCGDPPLSSNVSL [S13C] has a protein stability index of 2.43. Variant FHELQMQVTASDFGDPPLSSNVSL [S13F] has a protein stability index of 1.52. Variant FHELQMQVTASDTGDPPLSSNVSL [S13T] has a protein stability index of 1.75. FHELQMQVTASDAGDPPLSSNVSL [S13A] gave a protein stability index of 1.82. FHELQDQVTASDSGDPPLSSNVSL [M6D] showed a protein stability index of 3.81. In the case of FHELQTQVTASDSGDPPLSSNVSL [M6T], the protein stability index is reported as 3.32. FHELQVQVTASDSGDPPLSSNVSL [M6V] gave a protein stability index of 2.56. FHELQLQVTASDSGDPPLSSNVSL [M6L] showed a protein stability index of 2.58. For FHELQAQVTASDSGDPPLSSNVSL [M6A], the protein stability index was 2.84. In the case of FHELQQQVTASDSGDPPLSSNVSL [M6Q], the protein stability index is reported as 3.54. For FHELQRQVTASDSGDPPLSSNVSL [M6R], the protein stability index was 3. In the case of FHELQSQVTASDSGDPPLSSNVSL [M6S], the protein stability index is reported as 3.29. Variant FHELQMQVYASDSGDPPLSSNVSL [T9Y] has a protein stability index of 1.86. FHELQMQVSASDSGDPPLSSNVSL [T9S] gave a protein stability index of 2.16. FHELQMQVEASDSGDPPLSSNVSL [T9E] gave a protein stability index of 3.53. In the case of FHELQMQVAASDSGDPPLSSNVSL [T9A], the protein stability index is reported as 2.55. FHELQMQVVASDSGDPPLSSNVSL [T9V] showed a protein stability index of 2.12. In the case of FHELQMQVMASDSGDPPLSSNVSL [T9M], the protein stability index is reported as 2.18. FHELQMNVTASDSGDPPLSSNVSL [Q7N] gave a protein stability index of 2. FHELQMTVTASDSGDPPLSSNVSL [Q7T] gave a protein stability index of 2.33. In the case of FHELQMWVTASDSGDPPLSSNVSL [Q7W], the protein stability index is reported as 2.57. Work on FHELQMDVTASDSGDPPLSSNVSL [Q7D] yielded a protein stability index of 3.06. Variant FHELQMMVTASDSGDPPLSSNVSL [Q7M] has a protein stability index of 1.7. Work on FHELQMCVTASDSGDPPLSSNVSL [Q7C] yielded a protein stability index of 1.6. FHELQMYVTASDSGDPPLSSNVSL [Q7Y] gave a protein stability index of 2.69. Variant FHELQMKVTASDSGDPPLSSNVSL [Q7K] has a protein stability index of 1.67. Work on FHELQMRVTASDSGDPPLSSNVSL [Q7R] yielded a protein stability index of 1.99. Variant FHELQMPVTASDSGDPPLSSNVSL [Q7P] has a protein stability index of 1.71. With FHELQMQVTASDSGDPPLSSNVML [S23M] the protein stability index was 2.15. For FHELQMQVTASDSGDPPLSSNVFL [S23F], the protein stability index was 2.39. FHELQMQVTASDSGDPPLSSNVIL [S23I] showed a protein stability index of 1.89. For FHELQMQVTASDSGDPPLSSNVDL [S23D], the protein stability index was 3.16. In the case of FHELQMQVTASDSGDPPLSSNVAL [S23A], the protein stability index is reported as 2.15. FHELQMQVTASDSGDPPLSSNVSP [L24P] showed a protein stability index of 2.9. Variant FHELQMQVTASDSGDPPLSSNVSS [L24S] has a protein stability index of 3.29. For FHELQMQVTASDSGDPPLSSNVSG [L24G], the protein stability index was 2.52. FHELQMQVTASDSGDPPLSSNVSQ [L24Q] gave a protein stability index of 3.26. In the case of FHELQMQVTASDSGDPPLSSNVSM [L24M], the protein stability index is reported as 2.68. In the case of FHELQMQVTGSDSGDPPLSSNVSL [A10G], the protein stability index is reported as 2.24. Work on FHELQMQVTDSDSGDPPLSSNVSL [A10D] yielded a protein stability index of 2.62.
